The target in the experiment is T1, RANK (Receptor Activator of NF-kappa B) on primary murine cells (murine, UniProt O35305 31-625).
T1 construct: whole, on cells; Endogenous receptor on the cells
T1 sequence (looked up): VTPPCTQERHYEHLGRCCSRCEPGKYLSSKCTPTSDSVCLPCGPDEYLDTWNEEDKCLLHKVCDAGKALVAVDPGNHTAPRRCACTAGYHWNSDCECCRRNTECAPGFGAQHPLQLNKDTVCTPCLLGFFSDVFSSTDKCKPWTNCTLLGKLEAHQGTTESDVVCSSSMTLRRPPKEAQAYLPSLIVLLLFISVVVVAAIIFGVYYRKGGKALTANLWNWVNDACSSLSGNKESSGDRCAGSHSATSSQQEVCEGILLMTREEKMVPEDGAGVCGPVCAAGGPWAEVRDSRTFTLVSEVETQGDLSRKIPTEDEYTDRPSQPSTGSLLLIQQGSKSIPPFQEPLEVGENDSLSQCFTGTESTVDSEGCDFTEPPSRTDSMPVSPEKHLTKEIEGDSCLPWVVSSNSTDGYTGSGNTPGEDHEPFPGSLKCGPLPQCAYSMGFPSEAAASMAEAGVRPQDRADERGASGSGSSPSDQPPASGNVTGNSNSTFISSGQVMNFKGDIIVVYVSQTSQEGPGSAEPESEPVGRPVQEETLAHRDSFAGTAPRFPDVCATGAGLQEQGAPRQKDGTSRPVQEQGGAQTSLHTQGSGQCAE
Briefly: confocal microscopy of primary murine osteoblasts exposed to 5 nM ligand, RANK stained with anti-RANK antibody. As for the experimental part:
Primary murine osteoblasts were maintained in α-MEM containing 10% fetal bovine serum, and cultured in MEM containing 15% FBS, 50 μM ascorbic acid, and 10 mM β-glycerophosphate for differentiation. Cells were maintained at 37° C. in a humidified atmosphere containing 6% CO₂, with daily replenishment of media and cytokines. Primary murine osteoblasts were cultured on coverslips in A-MEM containing 10% fetal bovine serum and treated with GST-RANKL or cleaved RANKL for the indicated times. For phospholipid membrane staining, cells were incubated for 20 minutes with Vybrant Dil lipophilic carbocyanine membrane fluorescent stain (Molecular Probes). Cells were fixed in 4% paraformaldehyde, permeabilized with 0.1% Triton-X, blocked with 1% BSA/0.2% nonfat dry milk in PBS, and stained for RANK with a polyclonal anti-RANK antibody. Serial optical sections were obtained using a Radiance2100 laser scanning confocal microscope (BioRad). Microscope settings were calibrated to black level values using cells stained with an isotypic Ig control. GST-RANKL was cleaved as described in Example 12.
Primary osteoblasts in culture were exposed to 5 nM cleaved RANKL or GST-RANKL. […] Confocal microscopy was employed to localize RANK (green fluorescence) and the cell surface (red fluorescence). On the merged images, colocalization of RANK and the cell surface appears yellow (overlap of green and red fluorescence). […]

B1: GST-RANKL fusion protein (glutathione S-transferase fused N-terminally to murine RANKL residues 158-316) (ligand)
chain: KPEAQPFAHLTINAASIPSGSHKVTLSSWYHDRGWAKISNMTLSNGKLRVNQDGFYYLYANICFRHHETSGSVPTDYLQLMVYVVKTSIKIPSSHNLMKGGSTKNWSGNSEFHFYSINVGGFFKLRAGEEISIQVSNPSLLDPDQDATYFGAFKVQDID
notes: By size exclusion it is a polydisperse mixture of mono-trimeric (1 n) and oligomeric (2-100 n) units; also called oligomeric GST-RANKL; not shown: vector-encoded linker with protease site between GST and the SalI cloning site
For the molecule B1, the binding result was “binds”.

B2: cleaved RANKL (murine RANKL residues 158-316 with GST removed by rhinovirus 3C protease) (ligand)
chain: B1 chain
notes: It migrated as a single trimeric species (1 n) in gel filtration; also called RANKL alone
Consider B2, for which the binding result is “binds”.

The values above are taken from patent publication US20030013651A1 (BARNES JEWISH HOSPITAL, published 2003).
